Assay results reported in a protein production outcome set (Wang et al. 2014).

Assay: label from the status in PepcDB records

Row | Sequence | protein production
1 | MKFYIDDLPVLFPYPKIYPEQYNYMCDIKKTLDVGGNSILEMPSGTGKTVSLLSLTIAYQMHYPEHRKIIYCSRTMSEIEKALVELENLMDYRTKELGYQEDFRGLGLTSRKNLCLHPEVSKERKGTVVDEKCRRMTNGQAKRKLEEDPEANVELCEYHENLYNIEVEDYLPKGVFSFEKLLKYCEEKTLCPYFIVRRMISLCNIIIYSYHYLLDPKIAERVSNEVSKDSIVIFDEAHNIDNVCIESLSLDLTTDALRRATRGANALDERISEVRKVDSQKLQDEYEKLVQGLHSADILTDQEEPFVETPVLPQDLLTEAIPGNIRRAEHFVSFLKRLIEYLKTRMKVLHVISETPKSFLQHLKQLTFIERKPLRFCSERLSLLVRTLEVTEVEDFTALKDIATFATLISTYEEGFLLIIEPYEIENAAVPNPIMRFTCLDASIAIKPVFERFSSVIITSGTISPLDMYPRMLNFKTVLQKSYAMTLAKKSFLPMIITKGSDQVAISSRFEIRNDPSIVRNYGSMLVEFAKITPDGMVVFFPSYLYMESIVSMWQTMGILDEVWKHKLILVETPDAQETSLALETYRKACSNGRGAILLSVARGKVSEGIDFDHQYGRTVLMIGIPFQYTESRILKARLEFMRENYRIRENDFLSFDAMRHAAQCLGRVLRGKDDYGVMVLADRRFSRKRSQLPKWIAQGLSDADLNLSTDMAISNTKQFLRTMAQPTDPKDQEGVSVWSYEDLIKHQNSRKDQGGFIENENKEGEQDEDEDEDIEMQ | failed
2 | AELQQTEKASAKKQDKAEIRNVIVMIGDGMGTPYIRAYRSMKNNGDTPNNPKLTEFDRNLTGMMMTHPDDPDYNITDSAAAGTALATGVKTYNNAIGVDKNGKKVKSVLEEAKQQGKSTGLVATSEINHATPAAYGAHNESRKNMDQIANSYMDDKIKGKHKIDVLLGGGKSYFNRKNRNLTKEFKQAGYSYVTTKQALKKNKDQQVLGLFADGGLAKALDRDSKTPSLKDMTVSAIDRLNQNKKGFFLMVEGSQIDWAAHDNDTVGAMSEVKDFEQAYKAAIEFAKKDKHTLVIATADHTTGGFTIGANGEKNWHAEPILSAKKTPEFMAKKISEGKPVKDVLARYANLKVTSEEIKSVEAAAQADKSKGASKAIIKIFNTRSNSGWTSTDHTGEEVPVYAYGPGKEKFRGLINNTDQANIIFKILKTGK | failed
3 | GEIIEGCRLPVLRRNQDNEDEWPLAEILSVKDISGRKLFYVHYIDFNRRLDEWVTHERLDLKKIQFPKKEAKTP | not failed
4 | MNTLIIAKKEIVSAFRDKRTFLFMLAFPIVLIMILGTALTNAFDQQAAVGEVRVLYKDNSDGAFSQGFKTFVKEAKTSGVHFKKVLSDMDEKQEIKQGNYDAYLEIENSGIKLYQMDKNSMKNSIIQGMLTAFANRYNAAAEIIKAAPEQAGAVLGDAPGDNYIKETSLSSDRKPSSMDYYAVAMTTLIALYSALSASYLIRGERLRKTADRLIAAPVHKGEIFAGKLIGNLVTNGLCIFAVVAVSKYVFKAYWGEHLGLVAAVLFSIVLFAVCLGLGVSYLTRTGEAAVAIINVLIPLVAFFGGAYFPVDDAEGVLALITDLSPLAWTNEAIMNIIFADDLAAGLPAILLNIGLSLLFLLIAVVSLQRREGL | failed
5 | MEEGVNMDIRPTRIELIRTRRRIRLAKKGLDLLKMKRSALIYEFLQISRTIRGMKENLRKEVVEALNIIKVASVLEGSLALERIANMSSDSRINVNSRNVMGVNIPTLEVSYNLSILSDVYRTVSVPVAIDDSIRRFQKLFYDLILIVEKENSLRNLLMEIDRTKRRSNAIENILIPRLEYQAKMIKMTLDERERDTFTTLKTIKKKIEAENDLEHHHHHH | failed
6 | MHERTGLWRGITAVGALLLAVAIMAGTIMETYRTSLDAFVGTRSQRTVTDQSADNGDSWTYKSEYKTAKEAYEGFKKTAMDEAQETYVLLKNSDNALPLSKSAKITMFGVRSYAPVYGSSGGSVTDGNSTVEITKAFEEEGFQINPSMLKAYQNYFKDKKWTTPQFGGGILPEYEDITKYNDPCELSLDELAKLNPEYKSQYGEYQDAAIVVVGRPAGENGDGYYPGQDGLADGVNTVTGNILSLSDEEMALVNEAKANFSKVIVLVNSTNPMEIANLQDDPDIDAIMWIGYPGAYGFYGVADVLNGTVSPSAHLGDVMAKNSAVAPAMSNYGNVAWKNASDFSEDAAVNSYLMEAEGIYTGYRYYETRYADIVMGNGGDTASAGTYAASDGTVATADGTWDYANEVVYPFGYGLSYTTFEQKLDGVEIKGDKKTAVATVTVKNTGSVEGKSVIQLYASVPYTDYDKKNGVGKSAIQLMDFEKTNALKPGDSQTITMTVDLSNLASYDSNKAKTYIVDPGDYYFSIGDDVHDALNNVLAAQGYSESDGMTAAGDKTKTYTWSWDGGVDADTFATSSTGTKITNQLSDGKYATDYNAFDKGAVTYLTRSDWNGTFPKTYSGISANEEVSKLLNNDFIDLKSDGDVSDITIGDTSSSLTLNDMKGASYDDERWDELTSKVSVKEFMHFAETAFHAIGAIDSVGLQEMTTDDGPGGSDSHYLNEGQYQGKAYADADDYADKSSRVAPSPTNLAYSWNKELAYRNGEVILGESSLVFRLPIMIAPAMNLHRHAYNSRGVEYYSEDPILSGYIGSAVVQGAQSKGVLVNVKHLAFNDQEINRSGIATFMSEQKAREMELRNFQQAFEANGKPASFESDDAKKNTYTQGALGVMTSYNRIGAVASSANAAVMVNILRDEWGFTGYNVTDFTSVSPHAAPKESVLAGTSAFCGFGNQGVKYWDAATLSKDRDMLLAIKQNMHYSLWAIANSNAMNGVNSSTHTENVMTWWRAVYLGVIAASGVVTLIGLAGYTTTRIRPARNADNGPTAASK | failed
7 | MGSSHHHHHHENLYFQGSNIAFYVVSDVHGYIFPTDFTSRNQYQPMGLLLANHVIEQDRRQYDQSFKIDNGDFLQGSPFCNYLIAHSGSSQPLVDFYNRMAFDFGTLGNHEFNYGLPYLKDTLRRLNYPVLCANIYENDSTLTDNGVKYFQVGDQTVGVIGLTTQFIPHWEQPEHIQSLTFHSAFEILQQYLPEMKRHADIIVVCYHGGFEKDLESGTPTEVLTGENEGYAMLEAFSKDIDIFITGHQHRQIAERFKQTAVIQPGTRGTTVGRVVLSTDEYENLSVESCELLPVIDDSTFTIDEDDQHLRKQLEDWLDYEITTLPYDMTINHAFEARVAPHPFTNFMNYALLEKSDADVACTALFDSASGFKQVVTMRDVINNYPFPNTFKVLAVSGAKLKEAIERSAEYFDVKNDEVSVSADFLEPKPQHFNYDIYGGVSYTIHVGRPKGQRVSNMMIQGHAVDLKQTYTICVNNYRAVGGGQYDMYIDAPVVKDIQVEGAQLLIDFLSNNNLMRIPQVVDFKVEK | not failed
8 | MKFQPLGERVLVERLEEENKTSSGIIIPDNAKEKPLMGVVKAVSHKISEGCKCVKEGDVIAFGKYKGAEIVLDGTEYMVLELEDILGIVGSGSCCHTGNHDHKHAKEHEACCHDHKKH | failed
9 | MKKTFEKVYHLKLSIKGITPQIWRRIQVPENYTFLDLHKAIQAVMDWEDYHLHEFEMVNPKTGMLDKIGAEGDDFDAFGGPLVSEKKAKLSDYFTLENKEALYTYDFGDNWQVKVRLEKILPRKEGVEYPICTAGKRAAVPEDSGGVWGYEEMLEVLKDSEHEEYEDTVLWLGDDFDPEYFDPKDVSF | not failed
10 | MTSSPTSTQESSTSWYLLLQQLIDGESLSRSQAAELMQGWLSEAVPPELSGAILTALNFKGVSADELTGMAEVLQSQSKMGTGENYSQLPITNSPFSIIDTCGTGGDGSSTFNISTAVAFVAAAYGVPVAKHGNRSASSLTGSADVLEALGVNLGASPEKVQAALQEVGITFLFAPGWHPALKAVATLRRTLRIRTVFNLLGPLVNPLRPTGQVVGLFTPKLLTTVAQALDNLGKQKAIVLHGRERLDEAGLGDLTDLAVLSDGELQLTTINPQEVGVTPAPIGALRGGDVQENAEILKAVLQGKGTQAQQDAVALNAALALQVAGAVPLLDHAQGVSVAKEILQTGTAWAKLAQLVYFLGN | not failed
11 | MTRPTHPNALIWLLLSIAIIALDQATKAWVLTSLPEYIPVPVIHGFWNWYRSYNTGAAFSFLSDAGGWQMWLFIALALGISGLLTFWLSRTPRREWRSALPYALIIGGGIGNVIDRFLHGHVVDFIQWYVGSYYWPSFNLADSAIVAGAIGIGLLSLFDSKHSPKTP | failed
12 | MGRVRLQANQMEWRPGIYVGEGTTIASSAQLEPPLWIGQHCYIGEEVQLKAGTVIGDESRIEAGACLDRAVVWNRVQIGQRSHLEGCVLADGVRLERHVQIHEGAVIGSGCRLQEEAQVQAEVRIWPRKQIEAGAILEHHHHHH | failed
